Experimental data: patent US20070184522A1, “Cell death modulation via antagonists of Fasl and Fas activation” (University of Pittsburgh of the Commonwealth System of …, priority 2004, published 2007)

Assays:
[1] = tested on: endogenous Fas from Jurkat and Hepa 1-6 cells; experiment: Immunoprecipitation with anti-Fas antibody after adding AlphaMet proteins to Jurkat and Hepa 1-6 cells, Western blot with anti-His; assay type: binding; settings: proteins added to Jurkat cells and Hepa 1-6 cells
Source text: The Met alpha but not beta chain binds to Fas (FIG. 1a). Various regions of the mouse Met cDNA corresponding to the alpha chain or the extra-cellular portion of the Met beta chain were cloned into expression vectors (pCRT7 TOPO/AlphaMet or pCRT7 TOPO/beta chain) and subjected to in vitro transcription/translation by a rabbit reticolucyte lysate translation system. Empty vector was included in each experiment as a control. The expressed proteins were labeled with ^35S-Methionine. Pull down assays were performed using Fas-Fc, a chimeric molecule which lacks the interacellular cytoplasmic domain and protein-A agarose as described in Wang et al., 2002. […] FIG. 1d depicts the amino acid sequence alignment of alpha chain with FasL, determined using the CLUSTALW, SIM+LALNVIEW, and ALIGN at ExPASy Proteomic Tools (available on the internet at us.expresly.org/tools). […] Recombinant His-tagged AlphaMet or its mutant version were expressed in E. coli, purified with chromatography, and subjected to Fas-Fc (lanes labeled Fas) or control IgG pull down experiments, and detected by Western blot using anti-His antibody that recognizes C-terminal His. […] After washing the wells, anti-human […]-HRP conjugates (1:20,000) were added to detect the bound Fas-Fc using TMD dye and the OD value was determined at a wavelength of 450 nm. […]

[2] = target: T1, Fas trimerization in Jurkat cells (Homo sapiens, UniProt P25445); experiment: Chemical crosslinking (DTSSP) and Western blot of Fas trimerization in Jurkat cells; assay type: cell-based; settings: Fas Ligand 2 μg/ml, DTSSP
T1 construct: endogenous in cells; host or cells: Jurkat
T1 sequence (P25445 26-335): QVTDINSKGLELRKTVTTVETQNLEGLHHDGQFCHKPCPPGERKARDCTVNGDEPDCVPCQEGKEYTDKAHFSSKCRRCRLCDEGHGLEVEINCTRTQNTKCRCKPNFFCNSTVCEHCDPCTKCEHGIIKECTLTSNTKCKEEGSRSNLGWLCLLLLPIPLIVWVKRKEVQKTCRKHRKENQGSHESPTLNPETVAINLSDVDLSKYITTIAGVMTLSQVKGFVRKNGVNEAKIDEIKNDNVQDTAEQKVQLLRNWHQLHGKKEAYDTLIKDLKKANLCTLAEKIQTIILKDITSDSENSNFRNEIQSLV
Protocol: FIG. 3a presents data collected from Jurkat cells (1×10^6) treated with 2 μg/ml of Fas Ligand with or without AlphaMet for 30 minutes on ice. Cells were washed with PBS twice and then incubated with 2 mM of DTSSP in PBS for 30 minutes. The crosslinking process was stopped by 20 mM of Tris (pH 7.5) for another 30 minutes. Cells were spun down and washed with PBS twice and lyzed in RIPA buffer. Cell lysates were subjected to SDS-PAGE under non-reducing or reducing conditions (FIG. 3b) and Western blot analysis using the mouse monoclonal antibody against human Fas. FIG. 3c depicts the quantification of the data in FIG. 3a by densitometry. The data are the mean and SE from three different independent crosslinking and Western blot experiments. […] Frame A: Acceptor CFP-Fas image; Frame B: Acceptor pre-bleach CFP-Fas image; Frame C: Acceptor post-bleach image. Frame D: Donor YFP-Fas image; Frame E: Donor pre-bleach image; Frame F: […]. The CFP-Fas strength in the selected region obtained a gain of 19.3% efficiency in the presence of FasL for 15 minutes. No FRET was observed without FasL. […] FIG. 3e depicts the results of experiments in which CFP-tagged Fas or CFP control vector were transiently expressed in Hepa 1-6 Cells (3×10^5). […] Cells were fixed and analyzed by fluorescence microscopy. […]

B1: alpha subunit of Met (AlphaMet), amino acid residues 1 to 306, His-tagged (receptor, mouse)
chain: MKAPTVLAPGILVLLLSLVQRSHGECKEALVKSEMNVNMKYQLPNFTAETPIQNVVLHGHHIYLGATNYIYVLNDKDLQKVSEFKTGPVLEHPDCLPCRDCSSKANSSGGVWKDNINMALLVDTYYDDQLISCGSVNRGTCQRHVLPPDNSADIQSEVHCMFSPEEESGQCPDCVVSALGAKVLLSEKDRFINFFVGNTINSSYPPGYSLHSISVRRLKETQDGFKFLTDQSYIDVLPEFLDSYPIKYIHAFESNHFIYFLTVQKETLDAQTFHTRIIRFCSVDSGLHSYMEMPLECILTEKRRKRHHHHHH
For B1, which “co-precipitation with anti-Fas” value [1] is on record?
Its value is “could be co-precipitated with anti-Fas”.

What about the Fas trimerization [2] of the same molecule?
The Fas trimerization was “reduced the Fas trimerization to the background level”.
